In US20140308291A1 (INTEGRATED BIOTHERAPEUTICS, published 2014):

Molecular target: T1, wild-type gamma hemolysin B subunit (HlgB) (Staphylococcus aureus, UniProt Q2FVK1 27-325)
T1 construct: also called Gamma B; gamma hemolysin component B
T1 sequence: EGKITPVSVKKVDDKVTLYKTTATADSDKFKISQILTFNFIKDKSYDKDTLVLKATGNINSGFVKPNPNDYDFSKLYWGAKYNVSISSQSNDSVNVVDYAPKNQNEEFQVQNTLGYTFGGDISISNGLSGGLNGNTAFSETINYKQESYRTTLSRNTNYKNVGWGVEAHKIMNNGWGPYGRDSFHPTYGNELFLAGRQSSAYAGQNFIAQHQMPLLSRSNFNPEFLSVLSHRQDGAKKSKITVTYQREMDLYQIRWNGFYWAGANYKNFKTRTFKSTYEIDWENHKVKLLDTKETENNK
Test: MPD-based oligomerization assay (40% MPD, 24 hours), SDS-PAGE without boiling

B1: LukS-PV triple mutant T28F/K97A/S209A (Mut9) (other)
chain: HHHHHHDNNIENIGDGAEVVKRTEDTSSDKWGVFQNIQFDFVKDKKYNKDALILKMQGFINSKTTYYNYKNTDHIKAMRWPFQYNIGLKTNDPNVDLINYLPANKIDSVNVSQTLGYNIGGNFNSGPSTGGNGSFNYSKTISYNQQNYISEVEHQNSKSVQWGIKANSFITSLGKMSGHDPNLFVGYKPYSQNPRDYFVPDNELPPLVHSGFNPAFIATVSHEKGSGDTSEFEITYGRNMDVTHATRRTTHYGNSYLEGSRIHNAFVNRNYTVKYEVNWKTHEIKVKGHN
binding result: no binding
